Reference: the supplement of paper PMC6755084

B1: minF1; a variant is named by its letters at N, in order (parent)
chain: GAGACCGCAACTGAAAAGTTGTTNNNNAANNNNNGGNTNAATTTCTGCACGTAGAAGCAAAAGGC

Variants of: B1
Test: fraction ligated after 30 min (ligated reads / total reads); higher = more ligase activity
Details: with F1*subA RNA substrate (template-directed ligation), 42 °C
Procedure, shortened: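 Ligated and unligated RNAs from a pool of minimized ligase ribozyme variants were separated on gels, reverse transcribed with barcoded primers and sequenced on a MiSeq. Core bases needed quality ≥30 to pass the filter. Each variant's fraction ligated was then taken as ligated reads over total reads.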

Compared with GAGACCGCAACTGAAAAGTTGTTATCAGAAATGGGGTTGAATTTCTGCACGTAGAAGCAAAAGGC [ATCAAATGGTG A28G], GAGACCGCAACTGAAAAGTTGTTATCAAAATGGATGGTTGATTTCTGCACGTAGAAGCAAAAGGC [ATCAATGGAGT G35T A40G] is higher in fraction ligated: 0.00482 for the first, 0.0379 for the second.

Compared with GAGACCGCAACTGAAAAGTTGTTATCAGAATGGAGGGTTAATTTCTGCACGTAGAAGCAAAAGGC [ATCAATGGAGT A28G], GAGACCGCAACTGAAAAGTTGTTATCAAAATGGAGGGTTAATTTCTGCACGTAGAAGCAAAAGGC [ATCAATGGAGT] is higher in fraction ligated: 0.00328 for the first, 0.00569 for the second.

First: GAGACCGCAACTGAAAAGTTGTTATCAGAATGGAGGTTGAATTTCTGCACGTAGAAGCAAAAGGC [ATCAATGGATG A28G]
Second: GAGACCGCAACTGAAAAGTTGTTATCAGAAGGTGGGTTGAATTTCTGCACGTAGAAGCAAAAGGC [ATCAAGGTGTG A28G]
The fraction ligated of the first is lower: 0.00279 for the first, 0.00322 for the second.

Compared with GAGACCGCAACTGAAAAGTTGTTATCAAATGGATGGGTTAATTTCTGCACGTAGAAGCAAAAGGC [ATCATGGATGT], GAGACCGCAACTGAAAAGTTGTTATCAGAGGATGGGTTGAATTTCTGCACGTAGAAGCAAAAGGC [ATCAGGATGTG A28G] is higher in fraction ligated: 0.00625 for the first, 0.00911 for the second.

Compared with GAGACCGCAACTGAAAAGTTGTTATCAGAAGGATGGGTTGATTTCTGCACGTAGAAGCAAAAGGC [ATCAAGGATGT A28G A40G], GAGACCGCAACTGAAAAGTTGTTATCAGAAATGGTGGTTGATTTCTGCACGTAGAAGCAAAAGGC [ATCAAATGGGT A28G G35T A40G] is lower in fraction ligated: 0.0268 for the first, 0.00694 for the second.

Going from GAGACCGCAACTGAAAAGTTGTTATCAAATGATGGGTTGAATTTCTGCACGTAGAAGCAAAAGGC [ATCATGATGTG] to GAGACCGCAACTGAAAAGTTGTTATCAGAATGATGGGTTGATTTCTGCACGTAGAAGCAAAAGGC [ATCAATGATGT A28G A40G], the fraction ligated rises from 0.00541 to 0.0266.

First: GAGACCGCAACTGAAAAGTTGTTATCAAAAGGATGGGTTAATTTCTGCACGTAGAAGCAAAAGGC [ATCAAGGATGT]
Second: GAGACCGCAACTGAAAAGTTGTTATCAAAATGGGGGTTGAATTTCTGCACGTAGAAGCAAAAGGC [ATCAATGGGTG]
The fraction ligated of the first is lower: 0.00413 for the first, 0.0045 for the second.

First: GAGACCGCAACTGAAAAGTTGTTATCAGAAATGGTGGTTAATTTCTGCACGTAGAAGCAAAAGGC [ATCAAATGGGT A28G G35T]
Second: GAGACCGCAACTGAAAAGTTGTTATCAGAAATGGAGGTTAATTTCTGCACGTAGAAGCAAAAGGC [ATCAAATGGGT A28G G35A]
The fraction ligated of the first is lower: 0.00148 for the first, 0.00387 for the second.

First: GAGACCGCAACTGAAAAGTTGTTATCAGAAATGGAGGGTTATTTCTGCACGTAGAAGCAAAAGGC [ATCAAATGGGT A28G G35A T38G A40T]
Second: GAGACCGCAACTGAAAAGTTGTTATCAAAAGGATGGTTGAATTTCTGCACGTAGAAGCAAAAGGC [ATCAAGGATTG]
The fraction ligated of the first is lower: 0.000933 for the first, 0.00347 for the second.

First: GAGACCGCAACTGAAAAGTTGTTATCAGAAATGGAGGTTGATTTCTGCACGTAGAAGCAAAAGGC [ATCAAATGGGT A28G G35A A40G]
Second: GAGACCGCAACTGAAAAGTTGTTATCAGAAGGATGGGTTAATTTCTGCACGTAGAAGCAAAAGGC [ATCAAGGATGT A28G]
The fraction ligated of the first is higher: 0.00585 for the first, 0.00393 for the second.

First: GAGACCGCAACTGAAAAGTTGTTATCAGAAATGATGGTTGATTTCTGCACGTAGAAGCAAAAGGC [ATCAAATGAGT A28G G35T A40G]
Second: GAGACCGCAACTGAAAAGTTGTTATCAGAAGGATGGTTGAATTTCTGCACGTAGAAGCAAAAGGC [ATCAAGGATTG A28G]
The fraction ligated of the first is higher: 0.0046 for the first, 0.00187 for the second.

First: GAGACCGCAACTGAAAAGTTGTTATCAGATGATGGGTTGAATTTCTGCACGTAGAAGCAAAAGGC [ATCATGATGTG A28G]
Second: GAGACCGCAACTGAAAAGTTGTTATCAAAATGAGGGTTGAATTTCTGCACGTAGAAGCAAAAGGC [ATCAATGAGTG]
The fraction ligated of the first is higher: 0.00487 for the first, 0.003 for the second.

Going from GAGACCGCAACTGAAAAGTTGTTATCAGAATGATGGGTTAATTTCTGCACGTAGAAGCAAAAGGC [ATCAATGATGT A28G] to GAGACCGCAACTGAAAAGTTGTTATCAGAATGAGGGTTGAATTTCTGCACGTAGAAGCAAAAGGC [ATCAATGAGTG A28G], the fraction ligated falls from 0.00479 to 0.00195.

Going from GAGACCGCAACTGAAAAGTTGTTATCAAAGGATGGGTTGAATTTCTGCACGTAGAAGCAAAAGGC [ATCAGGATGTG] to GAGACCGCAACTGAAAAGTTGTTATCAGAAATGAGGGTTAATTTCTGCACGTAGAAGCAAAAGGC [ATCAAATGAGT A28G], the fraction ligated falls from 0.00723 to 0.00227.

First: GAGACCGCAACTGAAAAGTTGTTATCAAAATGATGGTTGAATTTCTGCACGTAGAAGCAAAAGGC [ATCAATGATTG]
Second: GAGACCGCAACTGAAAAGTTGTTATCAGAAATGTGGTTGAATTTCTGCACGTAGAAGCAAAAGGC [ATCAAATGTTG A28G]
The fraction ligated of the first is lower: 0.00237 for the first, 0.00332 for the second.

Going from GAGACCGCAACTGAAAAGTTGTTATCAGAAATATGGTTGAATTTCTGCACGTAGAAGCAAAAGGC [ATCAAATATTG A28G] to GAGACCGCAACTGAAAAGTTGTTATCAAAATGATGGGTTGATTTCTGCACGTAGAAGCAAAAGGC [ATCAATGATGT A40G], the fraction ligated rises from 0.00289 to 0.0188.

First: GAGACCGCAACTGAAAAGTTGTTATCAGAATGGTGGGTTAATTTCTGCACGTAGAAGCAAAAGGC [ATCAATGGTGT A28G]
Second: GAGACCGCAACTGAAAAGTTGTTATCAGATGGATGGGTTGATTTCTGCACGTAGAAGCAAAAGGC [ATCATGGATGT A28G A40G]
The fraction ligated of the first is lower: 0.00146 for the first, 0.0551 for the second.

First: GAGACCGCAACTGAAAAGTTGTTATCAAAATGGTGGGTTGATTTCTGCACGTAGAAGCAAAAGGC [ATCAATGGTGT A40G]
Second: GAGACCGCAACTGAAAAGTTGTTATCAGAAATGATGGGTTATTTCTGCACGTAGAAGCAAAAGGC [ATCAAATGAGT A28G G35T T38G A40T]
The fraction ligated of the first is higher: 0.00841 for the first, 0.00229 for the second.

First: GAGACCGCAACTGAAAAGTTGTTATCAGAAATGGGGGTTGATTTCTGCACGTAGAAGCAAAAGGC [ATCAAATGGGT A28G A40G]
Second: GAGACCGCAACTGAAAAGTTGTTATCAAAATGGATGGGTTATTTCTGCACGTAGAAGCAAAAGGC [ATCAATGGAGT G35T T38G A40T]
The fraction ligated of the first is higher: 0.00524 for the first, 0.00324 for the second.

Going from GAGACCGCAACTGAAAAGTTGTTATCAAATGGAGGGTTGAATTTCTGCACGTAGAAGCAAAAGGC [ATCATGGAGTG] to GAGACCGCAACTGAAAAGTTGTTATCAGTGGATGGGTTGAATTTCTGCACGTAGAAGCAAAAGGC [ATCAGGATGTG A28G A29T], the fraction ligated falls from 0.00635 to 0.00511.

Compared with GAGACCGCAACTGAAAAGTTGTTATCAGAAATATGGGTTGATTTCTGCACGTAGAAGCAAAAGGC [ATCAAATATGT A28G A40G], GAGACCGCAACTGAAAAGTTGTTATCAGATGGAGGGTTGAATTTCTGCACGTAGAAGCAAAAGGC [ATCATGGAGTG A28G] is higher in fraction ligated: 0.00354 for the first, 0.00478 for the second.
